This is an account of results in patent US7405286B2, “Stars—A muscle-specific actin-binding protein” (The Board of Regents of the University of Texas System, priority 2002, dated 2008).

The test system of one assay is F-actin. Description: Immunofluorescence / Phalloidin-TRITC staining of transfected COS cells. The assay is classed as cell-based. The settings on record: for stress fibers observed: STARS-transfected COS cells, 2 μM CD or 0.5 μM LB, data not shown; for association with F-actin / actin stress fibers / bundling of actin stress fibers: transfected COS cells, Myc-tagged proteins. The procedure:
(§1) Transient Transfections, Reporter Assays and Immunofluorescence Microscopy. COS cells were maintained in DMEM with 10% FBS. Eighteen hours after plating, the medium was changed to serum-free medium and transfections were performed at 50% confluency using FuGENE reagent-6 (Roche Molecular Biochemicals) following manufacturer's instructions. Each transfection used 0.15 μg of plasmid DNA for the reporter assays, and 0.5-1.0 μg immunohistochemistry. Cytochalasin D 2 μM (Sigma-Aldrich), and Y-27632 75 μM (Tocris) were added directly just after transfection. Latrunculin B 0.5 μM (dissolved in 10% ethanol, Calbiochem) was added 12 hr after transfection and 10% ethanol (final concentration 0.01%) was added to control wells. Cells were harvested 36 hr after transfection and their luciferase and β-galactosidase activity were measured.
For measuring immunofluorescence, cells were rinsed with PBS and fixed in 4% paraformaldehyde for 10 min on ice. After rinsing with PBS, COS cells were incubated in 0.1% Triton X-100 in PBS for 5 min on ice. For rat neonatal cardiomyocytes, 1% Triton X-100 in PBS was used. Cells were blocked for 20 min at room temperature in 0.5% BSA in PBS for COS cells and in 1% BSA plus 3% goat serum in PBS for rat cardiomyocytes. Then, cells were incubated with first antibody diluted in 0.5% BSA in PBS for 30-60 min at room temperature or overnight at 4° C. Anti c-myc monoclonal antibody 9E10 (Santa Cruz) was used at a 1:200 dilution. Other antibodies were anti α-actinin monoclonal antibody (1:400; Sigma-Aldrich), α-tubulin antibody (1:2000; Sigma-Aldrich) and anti-vimentin antibody (1:500; Sigma-Aldrich). Secondary antibodies were anti mouse/rabbit IgG FITC or Texas red (Vector) used at a 1:200 dilution incubated with or without Phalloidin-TRITC (1:500; Sigma Aldrich).

A further assay concerns SM22 promoter. Description: SM22-luciferase reporter assay in transiently transfected COS cells. The settings on record: for effect on SRF / SM22 promoter activation by STARS, in words (discussion): COS cells transfected with STARS. The assay is classed as cell-based.
From the text: STARS Expression Plasmids. STARS expression constructs were generated using the pcDNA3.1 mammalian expression vector (Invitrogen) which was modified to contain an amino-terminal Myc-tag. Constitutively active RhoA (L63) and C3 transferase in Prk5 were generously provided by Dr. Alan Hall (University College, London, United Kingdom). The SM22-luciferase reporter 1343 bp promoter has been previously described (Li et al., 1995). The smooth muscle α actin-luciferase reporter contained the 4 kb promoter region ligated into the pBL3basic vector (Promega). The ANF reporter contained the 638 bp promoter region (a generous gift from Dr. Mona Nemer, Universite de Montreal, Montreal, Quebec, Canada). The 4× cfos reporter contained four tandem copies of the cfos CArG box with flanking sequences, as described (Chang et al., 2001). CMV-lacZ (Promega) was used as an internal control for transfection efficiency.
as §1

The test system of a further assay is actin. Description: Co-immunoprecipitation of Myc-tagged proteins with actin in COS cells. The settings on record: anti-Myc immunoprecipitation, anti-actin Western blot. It counts as binding. The procedure: Western Blot and Co-immunoprecipitation Assay. Immunoprecipitation and western blot analysis was performed as described previously (Lu et al., 2000). For immunoprecipitation, cells were incubated with 1 μg anti c-myc polyclonal antibody A14 (Santa Cruz). Western blots were performed with anti-actin monoclonal antibody C4 (1:100; Roche Molecular Biochemicals) or anti c-myc monoclonal antibody 9E10 (1:1000; Santa Cruse) followed by incubation with secondary antibody HRP-conjugated anti mouse-IgG (Santa Cruse, Vector). To detect signals, blots were incubated with ECL (Santa Cruz) for 1 min, and exposed to film (Eastman Kodak Co).

Entries after “also recorded” stand apart in the source; their conditions may differ.

Regarding `C=C1[C@@H](C)[C@H]2[C@H](Cc3ccccc3)NC(=O)[C@]23[C@H](OC(C)=O)/C=C/[C@@](C)(O)C(=O)[C@@H](C)C/C=C/[C@H]3[C@@H]1O` [CD, cytochalasin D, reference compound], the stress fibers observed entry with F-actin is on record as “only short fragments of disrupted stress fibers”. For the same molecule, in the assay on SM22 promoter (COS cells, 2 μM CD, without STARS), the “increase of SM22 promoter activity by the agent itself” value is given as 8 fold.

Turning to `C/C1=C/C(=O)O[C@@H]2C[C@@H](CC[C@H](C)/C=C\CC1)O[C@@](O)([C@@H]1CSC(=O)N1)C2` [LB, latrunculin B, reference compound], the stress fibers observed entry with F-actin is listed as “only short fragments of disrupted stress fibers”. The “effect on SRF / SM22 promoter activation by STARS, in words (discussion)” value in the assay with SM22 promoter is “inhibit the activity of STARS”. Further, the “SM22-luciferase activity under LB treatment” value in the assay on SM22 promoter (COS cells, 0.5 μM LB, even in cells transfected with STARS) is “abolished”.

`C[C@@H](N)[C@H]1CC[C@H](C(=O)Nc2ccncc2)CC1` [Y-27632, reference compound]: the “effect on SRF / SM22 promoter activation by STARS, in words (discussion)” value is reported as “only partially inhibits” in the assay with SM22 promoter and “decreased SM22 promoter activity significantly” with SM22 promoter (listed as Y27632). In the assay on SM22 promoter (COS cells, Y-27632 75 μM), the “reduction of the stimulatory activity of STARS on the SM22 promoter” value is on record as 55%.

In the case of “RhoA L63: constitutively active RhoA mutant, expression vector [reference compound]”, the “activation of the SM22 promoter” value in the assay with SM22 promoter (COS cells, STARS and RhoA L63 together) is reported as “higher levels”; with SM22 promoter (COS cells, STARS or RhoA (L63) expression vector alone), “comparable levels”.

B1: N279: STARS deletion mutant lacking residues from the carboxy-terminus into the conserved region (protein)
chain: MAPGEKESGEGPAKSALRKIRTATLVISLARGWQQWANENSIRQAQEPTGWLPGGTQDSPQAPKPITPPTSHQKAQSAPKSPPRLPEGHGDGQSSEKAPEVSHIKKKEVSKTVVSKTYERGGDVSHLSHRYERDAGVLEPGQPENDIDRILHSHGSPTRRRKCANLVSELTKGWRVMEQEEPTWRSDSVDTEDSGYGGEAEERPEQDGVQVAVVRIKRPLPSQVNRFTEKLNCKAQQKYSPVGNLKGRWQQWADEHIQSQKLNPFSEEFDYELAMSTRL
modifications: left off: small tags and cut ends
notes: STARS deletion mutant lacking residues from the carboxy-terminus into the conserved region
Turning to B1, in the assay with F-actin, the “association with F-actin / actin stress fibers” value is on record as “did not affect the association with F-actin” and the “bundling of actin stress fibers” value is “abolished the ability of STARS to bundle actin stress fibers”. Moreover, the co-immunoprecipitation with actin entry in the assay on actin is “did not bind actin”.

B2: N304: STARS deletion mutant lacking residues from the carboxy-terminus into the conserved region (protein)
chain: MAPGEKESGEGPAKSALRKIRTATLVISLARGWQQWANENSIRQAQEPTGWLPGGTQDSPQAPKPITPPTSHQKAQSAPKSPPRLPEGHGDGQSSEKAPEVSHIKKKEVSKTVVSKTYERGGDVSHLSHRYERDAGVLEPGQPENDIDRILHSHGSPTRRRKCANLVSELTKGWRVMEQEEPTWRSDSVDTEDSGYGGEAEERPEQDGVQVAVVRIKRPLPSQVNRFTEKLNCKAQQKYSPVGNLKGRWQQWADEHIQSQKLNPFSEEFDYELAMSTRLHKGDEGYGRPKEGTKTAERAKRAEE
modifications: left off: small tags and cut ends
notes: as for B1
As for B2, in the assay on F-actin, the “association with F-actin / actin stress fibers” value is recorded as “did not affect the association with F-actin” and the “bundling of actin stress fibers” value is on record as “abolished the ability of STARS to bundle actin stress fibers”. For the same molecule, the co-immunoprecipitation with actin result with actin is “did not bind actin”.

B3: N323: STARS deletion mutant lacking residues from the carboxy-terminus into the conserved region (protein)
chain: MAPGEKESGEGPAKSALRKIRTATLVISLARGWQQWANENSIRQAQEPTGWLPGGTQDSPQAPKPITPPTSHQKAQSAPKSPPRLPEGHGDGQSSEKAPEVSHIKKKEVSKTVVSKTYERGGDVSHLSHRYERDAGVLEPGQPENDIDRILHSHGSPTRRRKCANLVSELTKGWRVMEQEEPTWRSDSVDTEDSGYGGEAEERPEQDGVQVAVVRIKRPLPSQVNRFTEKLNCKAQQKYSPVGNLKGRWQQWADEHIQSQKLNPFSEEFDYELAMSTRLHKGDEGYGRPKEGTKTAERAKRAEEHIYREMMDMCFIICTMARH
modifications: left off: small tags and cut ends
notes: as for B1
Consider B3, for which, in the assay on F-actin, the “association with F-actin / actin stress fibers” value is listed as “did not affect the association with F-actin” and the “bundling of actin stress fibers” value is reported as “abolished the ability of STARS to bundle actin stress fibers”. Moreover, the co-immunoprecipitation with actin entry in the assay with actin is “did not bind actin”.

B4: N346: STARS deletion mutant lacking residues from the carboxy-terminus into the conserved region (protein)
chain: MAPGEKESGEGPAKSALRKIRTATLVISLARGWQQWANENSIRQAQEPTGWLPGGTQDSPQAPKPITPPTSHQKAQSAPKSPPRLPEGHGDGQSSEKAPEVSHIKKKEVSKTVVSKTYERGGDVSHLSHRYERDAGVLEPGQPENDIDRILHSHGSPTRRRKCANLVSELTKGWRVMEQEEPTWRSDSVDTEDSGYGGEAEERPEQDGVQVAVVRIKRPLPSQVNRFTEKLNCKAQQKYSPVGNLKGRWQQWADEHIQSQKLNPFSEEFDYELAMSTRLHKGDEGYGRPKEGTKTAERAKRAEEHIYREMMDMCFIICTMARHRRDGKIQVTFGDLFDRYVRISDK
modifications: left off: small tags and cut ends
notes: as for B1
As for B4, in the assay on F-actin, the “association with F-actin / actin stress fibers” value is recorded as “did not affect the association with F-actin” and the “bundling of actin stress fibers” value was “abolished the ability of STARS to bundle actin stress fibers”. The co-immunoprecipitation with actin entry with actin is recorded as “did not bind actin”.

B5: Del234-279: larger internal STARS deletion mutant within the conserved region (protein)
chain: MAPGEKESGEGPAKSALRKIRTATLVISLARGWQQWANENSIRQAQEPTGWLPGGTQDSPQAPKPITPPTSHQKAQSAPKSPPRLPEGHGDGQSSEKAPEVSHIKKKEVSKTVVSKTYERGGDVSHLSHRYERDAGVLEPGQPENDIDRILHSHGSPTRRRKCANLVSELTKGWRVMEQEEPTWRSDSVDTEDSGYGGEAEERPEQDGVQVAVVRIKRPLPSQVNRFTEKLNCHKGDEGYGRPKEGTKTAERAKRAEEHIYREMMDMCFIICTMARHRRDGKIQVTFGDLFDRYVRISDKVVGILMRARKHGLVDFEGEMLWQGRDDHV
modifications: left off: small tags and cut ends
notes: larger internal STARS deletion mutant within the conserved region
For B5, in the assay with F-actin, the “association with F-actin / actin stress fibers” value is listed as “able to associate with F-actin” and the “bundling of actin stress fibers” value is reported as “lost the ability to bundle actin fibers”. Also, the co-immunoprecipitation with actin result with actin was “failed to co-immunoprecipitate”.

B6: C96: STARS deletion mutant within the conserved region (protein)
chain: HKGDEGYGRPKEGTKTAERAKRAEEHIYREMMDMCFIICTMARHRRDGKIQVTFGDLFDRYVRISDKVVGILMRARKHGLVDFEGEMLWQGRDDHV
modifications: left off: small tags and cut ends
notes: STARS deletion mutant within the conserved region
As for B6, in the assay with F-actin, the “association with F-actin / actin stress fibers” value was “did not affect the association with F-actin; also recorded: just associates with actin stress fibers” and the “bundling of actin stress fibers” value is “abolished the ability of STARS to bundle actin stress fibers”.
